Reference: paper PMC2859121 (Cell host & microbe, 2010)
Substitutions are numbered along the chain they refer to. * marks the point of attachment. Cam = NC(=O)C*

B1: tetherin(47–159) (domain or fragment, human, UniProt Q10589 47-159, looked up)
chain: KANSEACRDGLRAVMECRNVTHLLQQELTEAQKGFQDVEAQAATCNHTVMALMASLDAEKAQGQKKVEELEGEITTLNHKLQDASAEVERLRRENQVLSVRIADKKYYPSSQD
B2: tetherin(47–159), reduced with DTT and cysteines blocked with iodoacetamide (domain or fragment, human, UniProt Q10589 47-159, looked up)
chain: B1 chain
modifications: cysteines blocked with iodoacetamide after reduction with DTT
B3: tetherin(47–159)_set2 (domain or fragment, human, UniProt Q10589 47-159, looked up)
chain: B1 chain with L81K, A84Y, V88E, L91E
B4: tetherin(47–159) set 3 mutant (domain or fragment, human, UniProt Q10589 47-159, looked up)
chain: B1 chain with K1A, N3G, E5A, R8S, D9A, R12S
B5: tetherin(80–147) (domain or fragment, human, UniProt Q10589 80-147, looked up)
chain: GFQDVEAQAATCNHTVMALMASLDAEKAQGQKKVEELEGEITTLNHKLQDASAEVERLRRENQVLSVR
B6: tetherin(80–147), reduced with DTT and cysteines blocked with iodoacetamide (domain or fragment, human, UniProt Q10589 80-147, looked up)
chain: GFQDVEAQAATC(Cam)NHTVMALMASLDAEKAQGQKKVEELEGEITTLNHKLQDASAEVERLRRENQVLSVR

Legend:
[1] = target: the molecule itself; test: SDS-PAGE under reducing and non-reducing conditions
cross-linking = target: the molecule itself; test: cross-linking

Protein	stoichiometry N [1]	stoichiometry N (cross-linking)	other results
B1	2	–	–
B2	–	2	–
B3	–	–	binding result [1]: binds
B4	2	–	–
B5	2	–	–
B6	–	2	–
